Assay results: patent US20110250165A1

Columns and labels:
[1] = biological target: CF2ThCXCR4 (human) (UniProt P61073); test: FACS binding; CF2ThCXCR4 cells, % positive
[2] = biological target: CF2ThCXCR4 (human) (UniProt P61073); test: FACS binding; CF2ThCXCR4 cells, MFI
[3] = biological target: CXCR4 (Jurkat) (human) (UniProt P61073); test: FACS binding; Jurkat cells, % positive
[4] = biological target: CXCR4 (Jurkat) (human) (UniProt P61073); test: FACS binding; Jurkat cells, MFI
[5] = biological target: ΔN31-CXCR4 (human) (UniProt P61073); test: FACS on 293T cells expressing CXCR4 variants
[6] = biological target: 2442 CXCR2/CXCR4 chimera; test: FACS on 293T cells expressing CXCR4 variants
[7] = biological target: human CXCR4 (wild type) (human) (UniProt P61073); test: FACS on 293T cells expressing CXCR4 variants
human CXCR4 (wild type) (human), sequence (P61073 whole entry): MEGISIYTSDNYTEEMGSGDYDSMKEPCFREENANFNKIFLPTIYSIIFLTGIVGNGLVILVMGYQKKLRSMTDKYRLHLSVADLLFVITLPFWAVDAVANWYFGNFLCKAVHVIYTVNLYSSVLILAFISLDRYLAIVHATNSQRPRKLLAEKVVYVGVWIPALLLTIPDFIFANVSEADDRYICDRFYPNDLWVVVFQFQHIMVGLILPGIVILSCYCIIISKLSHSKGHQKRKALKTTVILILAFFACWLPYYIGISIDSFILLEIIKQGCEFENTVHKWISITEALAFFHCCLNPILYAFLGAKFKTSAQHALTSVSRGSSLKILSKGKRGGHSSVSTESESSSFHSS

[8] = biological target: ΔN25-CXCR4 (human) (UniProt P61073); test: FACS on 293T cells expressing CXCR4 variants
[9] = biological target: 2444b CXCR2/CXCR4 chimera (human) (UniProt P25025); test: FACS on 293T cells expressing CXCR4 variants
2444b CXCR2/CXCR4 chimera (human), sequence (P25025 other isoform, or with tags, fused parts or gaps mutant limits assumed): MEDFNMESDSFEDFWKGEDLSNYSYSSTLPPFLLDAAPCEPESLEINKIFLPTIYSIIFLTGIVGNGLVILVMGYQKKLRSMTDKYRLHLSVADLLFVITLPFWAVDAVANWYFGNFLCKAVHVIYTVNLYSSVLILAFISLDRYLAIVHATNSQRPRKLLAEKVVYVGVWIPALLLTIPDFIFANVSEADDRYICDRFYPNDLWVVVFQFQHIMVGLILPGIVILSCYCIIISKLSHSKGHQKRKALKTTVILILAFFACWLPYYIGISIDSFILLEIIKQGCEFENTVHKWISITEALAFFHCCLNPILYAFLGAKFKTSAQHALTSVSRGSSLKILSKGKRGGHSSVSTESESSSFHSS

[10] = biological target: 4442 CXCR2/CXCR4 chimera; test: FACS on 293T cells expressing CXCR4 variants

CXCR4 (Jurkat) (human), sequence (P61073 whole entry): as the sequence (P61073 whole entry) above
CF2ThCXCR4 (human), sequence (P61073 whole entry): as above

EC50 [1]	EC50 [2]	EC50 [3]	EC50 [4]	binding (+%) [5]	binding (+%) [6]	binding (+%) [7]	binding (+%) [8]	binding (+%) [9]	binding (+%) [10]	Substance
0.005 mg/L	0.7 mg/L	0.06 mg/L	16.9 mg/L							12G5
				55.4%	85.8%	100%	69.2%	70.1%	103%	murine monoclonal antibody 12G5
